Assay results taken from patent publication US20030180744A1.

Assays:
[1] = molecular target: hKGF receptor on the surface of PC-3 prostatic carcinoma cells (UniProt P21802); assay: competition of unlabeled hKGF with 125I-hKGF for binding to PC-3 cells, full competition curve
[2] = molecular target: human KGF receptor on transfected NIH3T3 cells (NIH3T3/FGFR-2) (human) (UniProt P21802); assay: competition of unlabeled hKGF with 125I-hKGF for binding to NIH3T3/FGFR-2 cells, with 1 ug/ml heparin
[3] = molecular target: hKGF receptor on the surface of PC-3 prostatic carcinoma cells (UniProt P21802); assay: value used to calculate Ki from IC50 in the PC-3 cell assay (FIG. 12 legend)
[4] = molecular target: hKGF receptor on the surface of PC-3 prostatic carcinoma cells (UniProt P21802); assay: saturation binding of 125I-hKGF on PC-3 cells, Scatchard analysis
[5] = molecular target: hKGF receptor on the surface of PC-3 prostatic carcinoma cells (UniProt P21802); assay: competition of unlabeled hKGF with 125I-hKGF for binding to PC-3 cells

B1: Recombinant human Keratinocyte Growth Factor (hKGF) (ligand, UniProt P21781 32-194, looked up)
chain: CNDMTPEQMATNVNCSSPERHTRSYDYMEGGDIRVRRLFCRTQWYLRIDKRGKVKGTQEMKNNYNIMEIRTVAVGIVAIKGVESEFYLAMNKEGKLYAKKECNEDCNFKELILENHYNTYASAKWTHNGGEMFVALNQKGIPVRGKKTKKEQKTAHFLPMAIT
In the case of B1, the Ki [1] is reported as 7.7 nM, the Ki [2] is reported as 0.034 nM and the Kd [3] is reported as 0.15 nM. The Kd [4] was 0.1 to 0.2 nM and the IC50 [5] was 70 nM.
